In publication PMC13397619:

B1: NLV3 TCR beta chain (CDR3β only) (parent)
chain: ASSPTGGSPSPLH

Variants of: B1
Test: T-Switch: Jurkat TCRβ−/− cells expressing a CDR3 saturation-mutagenesis library, stained with two peptide-HLA-A*02:01 tetramers (original and novel peptide) plus anti-CD3, FACS-sorted into four gates, gDNA sequenced
Conditions: tetramers 1 µg/mL, 30 min on ice, SP, DP and SW gates expanded about 10 days between rounds ('two to three rounds of selection' in the Methods), unresolved parent, parent is a CDR3 fragment, scale: fold enrichment, numbering: sequential-on-construct, sequence starts at 1
[1] = with both tetramers (double-negative gate, binds neither): HLA-A*02:01 with … and with …, gate DN: OPPOSITE: higher = more of the variant in the gate that binds neither peptide = LESS binding (or no expression; inferred). Fold enrichment of the CDR3 variant in one FACS gate of a two-tetram
[2] = with both tetramers (double-positive gate): HLA-A*02:01 with … and with …, gate DP: higher = more of the variant in the gate that binds both peptides. Fold enrichment of the CDR3 variant in one FACS gate of a two-tetramer stain. SP/DP/SW gates were expanded and re-sorted bef

[…] (CDR3 as printed); P4Q derived by comparing it with the table's wild-type CDR3 ASSPTGGSPSPLH
enrichment [1]: 1.2
enrichment [2]: 0

[…] (CDR3 as printed); S3Q derived by comparing it with the table's wild-type CDR3 ASSPTGGSPSPLH
enrichment [1]: 1.09
enrichment [2]: 0

[…] (CDR3 as printed); H13M derived by comparing it with the table's wild-type CDR3 ASSPTGGSPSPLH
enrichment [1]: 0.598
enrichment [2]: 0

[…] (CDR3 as printed); S8D derived by comparing it with the table's wild-type CDR3 ASSPTGGSPSPLH
enrichment [1]: 0.969
enrichment [2]: 0

[…] (CDR3 as printed); P9L derived by comparing it with the table's wild-type CDR3 ASSPTGGSPSPLH
enrichment [1]: 1.2
enrichment [2]: 0

[…] (CDR3 as printed); G7T derived by comparing it with the table's wild-type CDR3 ASSPTGGSPSPLH
enrichment [1]: 0.754
enrichment [2]: 0

[…] (CDR3 as printed); T5I derived by comparing it with the table's wild-type CDR3 ASSPTGGSPSPLH
enrichment [1]: 0.355
enrichment [2]: 0

[…] (CDR3 as printed); P4D derived by comparing it with the table's wild-type CDR3 ASSPTGGSPSPLH
enrichment [1]: 0.917
enrichment [2]: 0

[…] (CDR3 as printed); G6S derived by comparing it with the table's wild-type CDR3 ASSPTGGSPSPLH
enrichment [1]: 0.376
enrichment [2]: 0

[…] (CDR3 as printed); P11E derived by comparing it with the table's wild-type CDR3 ASSPTGGSPSPLH
enrichment [1]: 0.639
enrichment [2]: 0

[…] (CDR3 as printed); A1P derived by comparing it with the table's wild-type CDR3 ASSPTGGSPSPLH
enrichment [1]: 1.02
enrichment [2]: 0

[…] (CDR3 as printed); A1D derived by comparing it with the table's wild-type CDR3 ASSPTGGSPSPLH
enrichment [1]: 0.881
enrichment [2]: 0

[…] (CDR3 as printed); S2C derived by comparing it with the table's wild-type CDR3 ASSPTGGSPSPLH
enrichment [1]: 0.867
enrichment [2]: 0

[…] (CDR3 as printed); S8H derived by comparing it with the table's wild-type CDR3 ASSPTGGSPSPLH
enrichment [1]: 0.901
enrichment [2]: 0

[…] (CDR3 as printed); P4C derived by comparing it with the table's wild-type CDR3 ASSPTGGSPSPLH
enrichment [1]: 0.776
enrichment [2]: 0

[…] (CDR3 as printed); H13E derived by comparing it with the table's wild-type CDR3 ASSPTGGSPSPLH
enrichment [1]: 0.868
enrichment [2]: 0

[…] (CDR3 as printed); A1I derived by comparing it with the table's wild-type CDR3 ASSPTGGSPSPLH
enrichment [1]: 1.15
enrichment [2]: 0

[…] (CDR3 as printed); H13V derived by comparing it with the table's wild-type CDR3 ASSPTGGSPSPLH
enrichment [1]: 0.58
enrichment [2]: 0

[…] (CDR3 as printed); G7E derived by comparing it with the table's wild-type CDR3 ASSPTGGSPSPLH
enrichment [1]: 1.08
enrichment [2]: 0

[…] (CDR3 as printed); T5F derived by comparing it with the table's wild-type CDR3 ASSPTGGSPSPLH
enrichment [1]: 0.464
enrichment [2]: 0

[…] (CDR3 as printed); S2P derived by comparing it with the table's wild-type CDR3 ASSPTGGSPSPLH
enrichment [1]: 0.795
enrichment [2]: 0

[…] (CDR3 as printed); G6V derived by comparing it with the table's wild-type CDR3 ASSPTGGSPSPLH
enrichment [1]: 1.33
enrichment [2]: 0

[…] (CDR3 as printed); S8T derived by comparing it with the table's wild-type CDR3 ASSPTGGSPSPLH
enrichment [1]: 1.42
enrichment [2]: 0

[…] (CDR3 as printed); S8K derived by comparing it with the table's wild-type CDR3 ASSPTGGSPSPLH
enrichment [1]: 0.743
enrichment [2]: 0

[…] (CDR3 as printed); S10N derived by comparing it with the table's wild-type CDR3 ASSPTGGSPSPLH
enrichment [1]: 1.13
enrichment [2]: 0

[…] (CDR3 as printed); S8Q derived by comparing it with the table's wild-type CDR3 ASSPTGGSPSPLH
enrichment [1]: 0.893
enrichment [2]: 0

[…] (CDR3 as printed); S2A derived by comparing it with the table's wild-type CDR3 ASSPTGGSPSPLH
enrichment [1]: 0.536
enrichment [2]: 0

[…] (CDR3 as printed); L12I derived by comparing it with the table's wild-type CDR3 ASSPTGGSPSPLH
enrichment [1]: 0.883
enrichment [2]: 0

[…] (CDR3 as printed); A1R derived by comparing it with the table's wild-type CDR3 ASSPTGGSPSPLH
enrichment [1]: 0.65
enrichment [2]: 0

[…] (CDR3 as printed); P4W derived by comparing it with the table's wild-type CDR3 ASSPTGGSPSPLH
enrichment [1]: 1.23
enrichment [2]: 0

[…] (CDR3 as printed); S10M derived by comparing it with the table's wild-type CDR3 ASSPTGGSPSPLH
enrichment [1]: 0.53
enrichment [2]: 0

[…] (CDR3 as printed); S10I derived by comparing it with the table's wild-type CDR3 ASSPTGGSPSPLH
enrichment [1]: 0.982
enrichment [2]: 0

[…] (CDR3 as printed); P9F derived by comparing it with the table's wild-type CDR3 ASSPTGGSPSPLH
enrichment [1]: 0.851
enrichment [2]: 0

[…] (CDR3 as printed); S8P derived by comparing it with the table's wild-type CDR3 ASSPTGGSPSPLH
enrichment [1]: 1.03
enrichment [2]: 0

[…] (CDR3 as printed); S3P derived by comparing it with the table's wild-type CDR3 ASSPTGGSPSPLH
enrichment [1]: 0.64
enrichment [2]: 0

[…] (CDR3 as printed); P11N derived by comparing it with the table's wild-type CDR3 ASSPTGGSPSPLH
enrichment [1]: 1.51
enrichment [2]: 0

[…] (CDR3 as printed); S3N derived by comparing it with the table's wild-type CDR3 ASSPTGGSPSPLH
enrichment [1]: 0.483
enrichment [2]: 0

[…] (CDR3 as printed); S10R derived by comparing it with the table's wild-type CDR3 ASSPTGGSPSPLH
enrichment [1]: 1.17
enrichment [2]: 0

[…] (CDR3 as printed); G7D derived by comparing it with the table's wild-type CDR3 ASSPTGGSPSPLH
enrichment [1]: 1.18
enrichment [2]: 0

[…] (CDR3 as printed); A1K derived by comparing it with the table's wild-type CDR3 ASSPTGGSPSPLH
enrichment [1]: 0.994
enrichment [2]: 0

[…] (CDR3 as printed); G6W derived by comparing it with the table's wild-type CDR3 ASSPTGGSPSPLH
enrichment [1]: 1.44
enrichment [2]: 0

[…] (CDR3 as printed); T5E derived by comparing it with the table's wild-type CDR3 ASSPTGGSPSPLH
enrichment [1]: 0.994
enrichment [2]: 0

[…] (CDR3 as printed); S8M derived by comparing it with the table's wild-type CDR3 ASSPTGGSPSPLH
enrichment [1]: 1.29
enrichment [2]: 0

[…] (CDR3 as printed); S10A derived by comparing it with the table's wild-type CDR3 ASSPTGGSPSPLH
enrichment [1]: 0.624
enrichment [2]: 0

[…] (CDR3 as printed); P11Q derived by comparing it with the table's wild-type CDR3 ASSPTGGSPSPLH
enrichment [1]: 0.777
enrichment [2]: 0

[…] (CDR3 as printed); S8E derived by comparing it with the table's wild-type CDR3 ASSPTGGSPSPLH
enrichment [1]: 1.16
enrichment [2]: 0

[…] (CDR3 as printed); G6I derived by comparing it with the table's wild-type CDR3 ASSPTGGSPSPLH
enrichment [1]: 1.08
enrichment [2]: 0

[…] (CDR3 as printed); S2I derived by comparing it with the table's wild-type CDR3 ASSPTGGSPSPLH
enrichment [1]: 0.694
enrichment [2]: 0

[…] (CDR3 as printed); G7H derived by comparing it with the table's wild-type CDR3 ASSPTGGSPSPLH
enrichment [1]: 0.687
enrichment [2]: 0

[…] (CDR3 as printed); S3M derived by comparing it with the table's wild-type CDR3 ASSPTGGSPSPLH
enrichment [1]: 0.806
enrichment [2]: 0

[…] (CDR3 as printed); G7L derived by comparing it with the table's wild-type CDR3 ASSPTGGSPSPLH
enrichment [1]: 1.32
enrichment [2]: 0

[…] (CDR3 as printed); P9Q derived by comparing it with the table's wild-type CDR3 ASSPTGGSPSPLH
enrichment [1]: 0.777
enrichment [2]: 0

[…] (CDR3 as printed); S3E derived by comparing it with the table's wild-type CDR3 ASSPTGGSPSPLH
enrichment [1]: 0.814
enrichment [2]: 0

[…] (CDR3 as printed); S2K derived by comparing it with the table's wild-type CDR3 ASSPTGGSPSPLH
enrichment [1]: 0.571
enrichment [2]: 0

[…] (CDR3 as printed); P9M derived by comparing it with the table's wild-type CDR3 ASSPTGGSPSPLH
enrichment [1]: 1.18
enrichment [2]: 0

[…] (CDR3 as printed); S10L derived by comparing it with the table's wild-type CDR3 ASSPTGGSPSPLH
enrichment [1]: 0.468
enrichment [2]: 0

[…] (CDR3 as printed); G6P derived by comparing it with the table's wild-type CDR3 ASSPTGGSPSPLH
enrichment [1]: 1.09
enrichment [2]: 0

[…] (CDR3 as printed); P4I derived by comparing it with the table's wild-type CDR3 ASSPTGGSPSPLH
enrichment [1]: 0.965
enrichment [2]: 0
